# Measured values from patent US20140303084A1 (Biogen, published 2014).
# Square brackets hold non-standard residues; d marks the D form. Primed or numbered codes have the meaning given here. Side chains are listed from the residue outwards. Ends that are not written are not given here. * marks the point of attachment. N‑PEG5kmaleimide = Cys side chain bound to N-PEG 5 kDa maleimide; Biotin = O=C1N[C@H]2[C@H](CS[C@H]2CCCCC(=O)*)N1; Succinimide(1-Et,3-yl) = CCN1C(=O)CC(*)C1=O; NMeW = CN[C@@H](Cc1c[nH]c2ccccc12)C(=O)O; NMeY = CN[C@@H](Cc1ccc(O)cc1)C(=O)O; NMeT = CN[C@H](C(=O)O)[C@@H](C)O; NMeL = CN[C@@H](CC(C)C)C(=O)O; NMeK = CN[C@@H](CCCCN)C(=O)O; PEG4(3) = not defined here; NMeS = CN[C@@H](CO)C(=O)O; PEG12′ = not defined here; NMeA = CN[C@@H](C)C(=O)O; Orn = NCCC[C@H](N)C(=O)O; PEG2″ = not defined here; PEG4″ = PEG4 spacer unit; PEG5′ = not defined here; Dab = NCC[C@H](N)C(=O)O; pip = not defined here; PEG4′ = PEG4 spacer; Acm = CC(=O)NC*
# Target: human Factor IXa (human, UniProt P00740 47-191; P00740 227-461)
# Assay: cell-based or functional assay
Binder,"EC50 [µM], FXa generation assay [µM]","EC50 [µM], FXa generation assay with hFIXa [µM]"
RRAPGKLTDLASY[Dab]WLFWTGIA-NH2 (N-terminus assumed; SMILES CC[C@H](C)[C@H](NC(=O)CNC(=O)[C@@H](NC(=O)[C@H](Cc1c[nH]c2ccccc12)NC(=O)[C@H](Cc1ccccc1)NC(=O)[C@H](CC(C)C)NC(=O)[C@H](Cc1c[nH]c2ccccc12)NC(=O)[C@H](CCN)NC(=O)[C@H](Cc1ccc(O)cc1)NC(=O)[C@H](CO)NC(=O)[C@H](C)NC(=O)[C@H](CC(C)C)NC(=O)[C@H](CC(=O)O)NC(=O)[C@@H](NC(=O)[C@H](CC(C)C)NC(=O)[C@H](CCCCN)NC(=O)CNC(=O)[C@@H]1CCCN1C(=O)[C@H](C)NC(=O)[C@H](CCCNC(=N)N)NC(=O)[C@@H](N)CCCNC(=N)N)[C@@H](C)O)[C@@H](C)O)C(=O)N[C@@H](C)C(N)=O) [RRAPGKLT-Asp-LASY-Dab-WLFWTGIA-CONH2],> 10,–
SKQGRPISPDRRAAGKLTDLASY[Orn]WLFWTGIA (not fully specified; printed as SKQGRPISPDRRAAGKLT-Asp-LASY-Orn-WLFWTGIA) [SKQGRPISPDRRAAGKLT-Asp-LASY-Orn-WLFWTGIA],< 0.5,–
C(PEG 5 kDa)GGGRRAPGKLTDLASYKWLFWTGIA (not fully specified; printed as C(PEG5k)GGG-RRAPGKLT-Asp-LASY-Lys-WLFWTGIA) [C(PEG5k)GGG-RRAPGKLT-Asp-LASY-Lys-WLFWTGIA],> 1,–
CGGGRRAPGKLTDLASYKWLFWTGIA [CGGG-RRAPGKLT-Asp-LASY-Lys-WLFWTGIA],< 0.5,–
CGGGLVPRGGGRRAPGKLTDLASYKWLFWTGIA [CGGGLVPRGGG-RRAPGKLT-Asp-LASY-Lys-WLFWTGIA],< 0.5,–
"C(Succinimide(1-Et,3-yl))[PEG4′]LVPR[PEG4′][dR]RAPGKLTCLASYCWLFWTGIA (cysteine pairing not given here) [C(N-ethylmaleimide)-PEG4-LVPR-PEG4-rRAPGKLTCLASYCWLFWTGIA]",> 1,–
[dR]RAPGKLTCLASYCWLFWTGIA[PEG4(3)]C(N‑PEG5k maleimide) (cysteine pairing not given here) [rRAPGKLTCLASYCWLFWTGIA-PEG4-C(N-PEG5k maleimide)],> 1,–
C(N‑PEG5kmaleimide)[PEG4′]LVPR[PEG4′][dR]RAPGKLTCLASYCWLFWTGIA (cysteine pairing not given here) [C(N-PEG5kmaleimide)-PEG4-LVPR-PEG4-rRAPGKLTCLASYCWLFWTGIA],> 1,–
C(N‑PEG5kmaleimide)[PEG4′]SKQGRPISPD[dR]RAAGKLTCLASYCWLFWTGIA (cysteine pairing not given here) [C(N-PEG5kmaleimide)-PEG4-SKQGRPISPDrRAAGKLTCLASYCWLFWTGIA],> 1,–
SKQGRPISPD[dR]RAAGKLTCLASYCWLFWTGIA[PEG4″]C(N‑PEG5k maleimide) (cysteine pairing not given here) [SKQGRPISPDrRAAGKLTCLASYCWLFWTGIA-PEG4-C(N-PEG5k maleimide)],> 5,–
C(Acm)GGGG[dF][pip]R[PEG5′][dR]RAPGKLTCLASYCWLFWTGIA (cysteine pairing not given here; reading uncertain; also: printed as C(Acm)GGGGfpipR-PEG5-rRAPGKLTCLASYCWLFWTGIA) [C(Acm)GGGGfpipR-PEG5-rRAPGKLTCLASYCWLFWTGIA],> 1,–
CKTYFWK[dP]GNIMVTFC[PEG12′]K([PEG2″-Biotin])[PEG12′][dR]RAPGKLTCLASYCWLFWTGIA (cysteine pairing not given here) [CKTYFWKpGNIMVTFC-PEG12-Lys(PEG2-Biotin)-PEG12-rRAPGKLTCLASYCWLFWTGIA],> 20,–
[dR][dR][dA][dP]G[dK][dL][dT][dC][dL][dA][dS][dY][dC][dW][dL][dF][dW][dT]G[dI][dA] (not fully specified; printed as rrapgkltclasycwlfwtgia (inverso); cysteine pairing not given here) [rrapgkltclasycwlfwtgia (inverso)],< 0.5,–
AIGTWFLWCYSALCTLKGPARR (not fully specified; printed as AIGTWFLWCYSALCTLKGPARR (retro); cysteine pairing not given here) [AIGTWFLWCYSALCTLKGPARR (retro)],> 1,–
[dA][dI]G[dT][dW][dF][dL][dW][dC][dY][dS][dA][dL][dC][dT][dL][dK]G[dP][dA][dR][dR] (cysteine pairing not given here; also: retro-inverso) [aigtwflwcysalctlkgparr (retro-inverso)],> 1,–
RRRKLTCLASYCWLFRRR,> 1,–
KKKKLTCLASYCWLFKKK,> 5,–
KKLTCLASYCWLF,< 0.5,–
ALTCLASYCWLF,> 1,–
KATCLASYCWLF,< 0.5,–
KLACLASYCWLF,< 0.5,–
KLTALASYCWLF,> 1,–
KLTCAASYCWLF,< 0.5,–

Binder,"EC50 [µM], FXa generation assay [µM]","EC50 [µM], FXa generation assay with hFIXa [µM]"
KLTCLASACWLF,< 0.5,–
KLTCLASYAWLF,> 1,–
KLTCLASYCALF,> 1,–
KLTCLASYCWLA,< 0.5,–
ALTCLAAYCALF,> 1,–
KAACLASACWLA,> 20,–
[dK]LTCLASYCWLF (not fully specified; cysteine pairing not given here) [kLTCLASYCWLF],< 0.5,–
[dK][NMeL]TCLASYCWLFWTGIA-NH2 (cysteine pairing not given here) [compound 10],–,< 0.5
KLTCL[dA]SYCWLF (not fully specified (bridges); printed as KLTCLaSYCWLF; cysteine pairing not given here) [KLTCLaSYCWLF],> 5,–
KLTCLA[dS]YCWLF (cysteine pairing not given here) [KLTCLAsYCWLF],> 1,–
KLTCLAS[dY]CWLF (not fully specified (bridges); printed as KLTCLASyCWLF; cysteine pairing not given here) [KLTCLASyCWLF],> 5,–
KLTCLASY[dC]WLF (cysteine pairing not given here) [KLTCLASYcWLF],> 1,–
KLTCLASYCWL[dF] (cysteine pairing not given here) [KLTCLASYCWLf],> 1,–
[NMeK]LTCLASYCWLF (cysteine pairing not given here) [MeLys-LTCLASYCWLF],< 0.5,–
K[NMeL]TCLASYCWLF (cysteine pairing not given here) [K-MeLeu-TCLASYCWLF],< 0.5,–
KL[NMeT]CLASYCWLF (cysteine pairing not given here) [KL-MeThr-CLASYCWLF],< 0.5,–
KLTC[NMeL]ASYCWLF (cysteine pairing not given here) [KLTC-MeLeu-ASYCWLF],> 20,–
KLTCL[NMeA]SYCWLF (cysteine pairing not given here) [KLTCL-MeAla-SYCWLF],> 20,–
KLTCLA[NMeS]YCWLF (cysteine pairing not given here) [KLTCLA-MeSer-YCWLF],> 20,–
KLTCLAS[NMeY]CWLF (cysteine pairing not given here) [KLTCLAS-MeTyr-CWLF],> 20,–
KLTCLASYC[NMeW]LF (cysteine pairing not given here) [KLTCLASYC-MeTrp-LF],> 20,–
KLTCLASYCW[NMeL]F (cysteine pairing not given here) [KLTCLASYCW-MeLeu-F],> 1,–
